# Experimental data taken from US20210163540, “POLYPEPTIDES SELF-ASSEMBLING INTO NANOPARTICLES” (ETH ZÜRICH, published 2021).
# Substitutions are numbered along the chain they refer to.
# B1: ssDNA5 (ssDNA)
# DNA: GCGATTCAGCAGGCGATTGAAACC
# B2: dsRNA (GFP-siRNA-g/GFP-siRNA-p) (dsRNA)
# RNA 1: GAACUUCAGGGUCAGCUUGGG
# RNA 2: CAAGCUGACCCUGAAGUUCUU
# modifications: last two 3' nucleotides deoxy on each strand
# B3: Atto488-ssDNA (A488-DNA) (ssDNA)
# DNA: TTAATTAAAGACTTCAAGCGG
# B4: ssDNA8 (ssDNA)
# DNA: CCACGCTATTCAGACCGCTAATCG
# B5: dsDNA (GFP-g/GFP-p) (dsDNA)
# DNA 1: GAACTTCAGGGTCAGCTTGGG
# DNA 2: CAAGCTGACCCTGAAGTTCTT
# B6: ssDNA1 (ssDNA)
# DNA: CGTGGCGAGCAGCAGCGC
# B7: ssDNA6 (ssDNA)
# DNA: CGATTAGCGGTCTGAATAGCGTGG
# B8: ssDNA7 (ssDNA)
# DNA: GGTTTCAATCGCCTGCTGAATCGC
# B9: Atto488-dsDNA (A488-DNA/A488-DNA') (dsDNA)
# DNA 1: TTAATTAAAGACTTCAAGCGG
# DNA 2: GCTTGAAGTCTTTAATTAATT
# B10: ssDNA9 (ssDNA)
# DNA: GAAGGAGATATACATATGAGCCAGGC
# B11: ssDNA2 (ssDNA)
# DNA: CCTGGTGCGTGTGCACATGG
# B12: ssDNA3 (ssDNA)
# DNA: GTGCTCGAGACCTTCCACCATC
# B13: ssDNA4 (ssDNA)
# DNA: GGTGATGCGATGCTGAAAAGCGC
# Legend:
# [1] = target: T1, OTR502 (Artificial) (UniProt Q9XDM8); conditions: fluorescence quenching kinetics koff/kon
# T1 sequence: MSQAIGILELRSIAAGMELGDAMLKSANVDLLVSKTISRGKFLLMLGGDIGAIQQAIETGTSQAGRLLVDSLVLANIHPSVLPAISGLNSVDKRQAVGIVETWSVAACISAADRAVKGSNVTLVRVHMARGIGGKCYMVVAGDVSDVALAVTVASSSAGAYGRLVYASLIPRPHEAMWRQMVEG
# [2] = target: T2, OP (Artificial) (UniProt Q9XDM8); conditions: fluorescence quenching kinetics koff/kon
# T2 sequence: T1 sequence with W103R
# [3] = target: T3, OTR501 (Artificial) (UniProt Q9XDM8); conditions: fluorescence quenching kinetics koff/kon
# T3 sequence: T1 sequence with R39P, W103R
# [4] = target: T4, OTR503 (Artificial) (UniProt Q9XDM8); conditions: fluorescence quenching kinetics koff/kon
# T4 sequence: T1 sequence with W103R, R163L
# [5] = target: T5, OP (Artificial, UniProt Q9XDM8 SEQ:1-184); assay: EMSA; 2:1 ssDNA to capsid; conditions: tags: C-terminal His6; chain copies: 24 (self-assembled cage)
# T5 chain: T1 sequence with W103R
# [6] = target: T6, OP-NoHis6 (Artificial, UniProt Q9XDM8 SEQ:1-188); assay: EMSA; 1:1 molar ratio; siRNA encapsulation also by SEC; conditions: tags: no His6 (GS C-terminus); chain copies: 24 (self-assembled cage, inferred); siRNA duplex with 2-nt 3' DNA overhangs
# T6 chain: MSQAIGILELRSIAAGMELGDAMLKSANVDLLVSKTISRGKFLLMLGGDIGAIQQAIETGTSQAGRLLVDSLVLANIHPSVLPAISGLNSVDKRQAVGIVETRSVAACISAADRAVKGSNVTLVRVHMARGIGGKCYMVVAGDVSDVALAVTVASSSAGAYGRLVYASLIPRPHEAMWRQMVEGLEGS
# [7] = target: T7, O3-33 (Artificial, UniProt Q9XDM8 SEQ:1-184, R11T,R39P,R66E,R103W,R130F,R163L); assay: EMSA; 2 equiv. O3-33; conditions: tags: C-terminal His6, pET29b(+)-O3-33 (David Baker), PDB 3VCD, chain copies: 24 (self-assembled cage)
# T7 sequence: T1 sequence with R11T, R39P, R66E, R130F, R163L
# [8] = target: T5, OP; assay: EMSA; PBS, room temp; near complete binding at 0.5 equiv. cage, 1.97 guests per cage by SEC; conditions: tags: C-terminal His6; chain copies: 24 (self-assembled cage); siRNA duplex with 2-nt 3' DNA overhangs
# [9] = target: T8, OTR503 (Artificial, UniProt Q9XDM8 SEQ:1-184); assay: fluorescence quenching kinetics koff/kon, PBS, room temp; conditions: tags: C-terminal His6; chain copies: 24 (inferred); label: Atto488 5'
# T8 chain: T1 sequence with W103R, R163L
# [10] = target: T9, OTR501 (Artificial, UniProt Q9XDM8 SEQ:1-184); assay: as above; conditions: tags: C-terminal His6; chain copies: 24 (inferred); label: Atto488 5'
# T9 chain: T1 sequence with R39P, W103R
# [11] = target: T10, OTR502 (Artificial, UniProt Q9XDM8 SEQ:1-184); assay: as above; conditions: tags: C-terminal His6; chain copies: 24 (inferred); label: Atto488 5'
# T10 chain: T1 sequence
# [12] = target: T11, OTR401 (Artificial, UniProt Q9XDM8 SEQ:1-184); assay: as above; conditions: tags: C-terminal His6; chain copies: 24 (inferred); label: Atto488 5'
# T11 chain: T1 sequence with R66E, W103R, R163L
# [13] = target: T12, OTR302 (Artificial, UniProt Q9XDM8 SEQ:1-184); assay: as above; conditions: tags: C-terminal His tag; chain copies: 24 (inferred); label: Atto488 5'
# T12 chain: T1 sequence with R66E, R163L
# [14] = target: T13, OTR301 (Artificial, UniProt Q9XDM8 SEQ:1-184); assay: as above; conditions: tags: C-terminal His6; chain copies: 24 (inferred); label: Atto488 5'
# T13 chain: T1 sequence with R11T, R39P, R66E, W103R
# [15] = target: T14, OTR402 (Artificial, UniProt Q9XDM8 SEQ:1-184); assay: as above; conditions: tags: C-terminal His6; chain copies: 24 (inferred); label: Atto488 5'
# T14 chain: T1 sequence with R39P, W103R, R130F
# [16] = target: T5, OP; assay: fluorescence quenching kinetics koff/kon, PBS, room temp; p321 gives (2.4±0.3)e-10; conditions: tags: C-terminal His6; chain copies: 24 (self-assembled cage); label: Atto488 5'
# [17] = target: T15, OTR202 (Artificial, UniProt Q9XDM8 SEQ:1-184); assay: EMSA; also no binding by fluorescence quenching; conditions: tags: C-terminal His6; chain copies: 24 (inferred); label: Atto488 5'
# T15 chain: T1 sequence with R39P, R66E, W103R, R130F, R163L
# [18] = target: T16, OTR101 (Artificial, UniProt Q9XDM8 SEQ:1-184); assay: EMSA; also no binding by fluorescence quenching; conditions: tags: C-terminal His6; chain copies: 24 (inferred); label: Atto488 5'
# T16 chain: T1 sequence with R11T, R66E, R130F, R163L
# [19] = target: T17, OTR201 (Artificial, UniProt Q9XDM8 SEQ:1-184); assay: EMSA; also no binding by fluorescence quenching; conditions: tags: C-terminal His6; chain copies: 24 (inferred); label: Atto488 5'
# T17 chain: T1 sequence with R11T, R66E, R163L
# [20] = target: T18, OTR203 (Artificial, UniProt Q9XDM8 SEQ:1-184); assay: EMSA; also no binding by fluorescence quenching; conditions: tags: C-terminal His6; chain copies: 24 (inferred); label: Atto488 5'
# T18 chain: T1 sequence with R66E, R130F, R163L
# [21] = target: T7, O3-33; assay: EMSA; PBS, room temp; also no binding by fluorescence quenching; conditions: tags: C-terminal His6; pET29b(+)-O3-33 (David Baker), PDB 3VCD; chain copies: 24 (self-assembled cage); label: Atto488 5'
# [22] = target: T5, OP; assay: EMSA; PBS, room temp; near complete binding at 0.5 equiv. cage, 1.98 guests per cage by SEC; conditions: tags: C-terminal His6; chain copies: 24 (self-assembled cage)
# [23] = target: T5, OP; assay: EMSA; 1:1 complex in PBS; released over 6 h by 26 uM tRNA at 37 C; conditions: tags: C-terminal His6; chain copies: 24 (self-assembled cage); label: Atto488 5'
molecule,measurement,setting,value
hpDNA (Atto488-hairpin DNA),Kd,[1],0.684 nM
same,Kd,[2],1.21 nM
same,Kd,[3],0.39 nM
same,Kd,[4],0.184 nM
B1,binding result,[5],binds
B2,binding result,[6],binds
same,binding result,[7]; siRNA duplex with 2-nt 3' DNA overhangs,no binding
same,binding result,[8],binds
B3,Kd,[9],0.609 nM
same,Kd,[10],0.13 nM
same,Kd,[11],0.289 nM
same,Kd,[12],16.1 nM
same,Kd,[13],8.59 nM
same,Kd,[14],2.12 nM
same,Kd,[15],0.248 nM
same,Kd,[16],0.242 nM
same,binding result,[17],no binding
same,binding result,[18],no binding
same,binding result,[19],no binding
same,binding result,[20],no binding
same,binding result,[21],no binding
B4,binding result,[5],binds
B5,binding result,[7],no binding
same,binding result,[22],binds
B6,binding result,[5],binds
B7,binding result,[5],binds
B8,binding result,[5],binds
B9,binding result,[23],binds
B10,binding result,[5],binds
B11,binding result,[5],binds
B12,binding result,[5],binds
B13,binding result,[5],binds
